Data: paper PMC6555648 (Molecular cell, 2019)
Where no end group is shown, it is not given here.

T1: mouse REC114 residues 1–158 (REC114N) (mouse, UniProt Q9CWH4 1-158, selenomethionine derivative (in the crystals))
T1 sequence (looked up): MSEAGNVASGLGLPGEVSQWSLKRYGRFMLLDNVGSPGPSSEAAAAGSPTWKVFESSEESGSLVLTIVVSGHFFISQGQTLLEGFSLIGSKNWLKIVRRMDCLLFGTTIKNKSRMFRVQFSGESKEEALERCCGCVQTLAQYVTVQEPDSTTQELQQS


Assays:
[1] = molecular target: T1, mouse REC114 residues 1–158 (REC114N); assay: crystal structure
[2] = molecular target: T1, mouse REC114 residues 1–158 (REC114N); assay: pull-down

binding result [1] | binding result [2] | Binder
binds | – | SRESMQTIPHYLQIKEILQISKQELLPCHVMEQHWKFYVGRSHSEALLSW (domain or fragment, UniProt A0A140LI88 1808-1857, looked up, also: selenomethionine derivative) [mouse ANKRD31 residues 1808–1857 (ANKRD31C)]
– | binds | SRESMQTIPHYLQIKEILQISKQELLPCHVMEQHWKFYVGRSHSEALLSW (domain or fragment, mouse, UniProt A0A140LI88 1808-1857, looked up) [GST-tagged ANKRD31C]
